In patent publication US20130171069A1:
Ends that are not written are not given here.

Molecular target: synthetic amylospheroid (synthetic ASPD) (UniProt P05067)
Experiment: SPR; biotinylated peptide on the chip, ASPD as ligand

Row | Binder | Kd [nM] | kon [M⁻¹ s⁻¹]
1 | HFNWYNLWRVQY-biotin [C-terminal biotinylated AAT01 …] | 57.7 | 7640
2 | HLNWLSWFPSRH-biotin [C-terminal biotinylated AAT03 …] | 88.5 | –
3 | HLNWWHSWYPAR-biotin [C-terminal biotinylated AAT02 …] | 82.4 | –
